Read-outs that look alike come from different tables or passages of the source.
What was measured:
NaV1.2 = NaV1.2 (UniProt P04775)
NaV1.3 = NaV1.3 (UniProt P08104)
NaV1.4 = NaV1.4 (UniProt P15390)
NaV1.5 = NaV1.5 (UniProt Q14524)
NaV1.6 = NaV1.6 (UniProt Q9WTU3)
NaV1.7 = NaV1.7 (UniProt Q15858)
[1] = target: NaChBac (Bacillus halodurans)
[2] = target: NaChBac F103A (Bacillus halodurans)
[3] = target: NaChBac Q107A (Bacillus halodurans)
[4] = target: NaChBac V109A (Bacillus halodurans)
[5] = target: NaChBac/F108A (Bacillus halodurans)
[6] = target: NaChBac/G105A (Bacillus halodurans)
[7] = target: NaChBac (Bacillus halodurans); remark: listed apart in the source

Chain of UniProt P08104 (P08104 whole entry): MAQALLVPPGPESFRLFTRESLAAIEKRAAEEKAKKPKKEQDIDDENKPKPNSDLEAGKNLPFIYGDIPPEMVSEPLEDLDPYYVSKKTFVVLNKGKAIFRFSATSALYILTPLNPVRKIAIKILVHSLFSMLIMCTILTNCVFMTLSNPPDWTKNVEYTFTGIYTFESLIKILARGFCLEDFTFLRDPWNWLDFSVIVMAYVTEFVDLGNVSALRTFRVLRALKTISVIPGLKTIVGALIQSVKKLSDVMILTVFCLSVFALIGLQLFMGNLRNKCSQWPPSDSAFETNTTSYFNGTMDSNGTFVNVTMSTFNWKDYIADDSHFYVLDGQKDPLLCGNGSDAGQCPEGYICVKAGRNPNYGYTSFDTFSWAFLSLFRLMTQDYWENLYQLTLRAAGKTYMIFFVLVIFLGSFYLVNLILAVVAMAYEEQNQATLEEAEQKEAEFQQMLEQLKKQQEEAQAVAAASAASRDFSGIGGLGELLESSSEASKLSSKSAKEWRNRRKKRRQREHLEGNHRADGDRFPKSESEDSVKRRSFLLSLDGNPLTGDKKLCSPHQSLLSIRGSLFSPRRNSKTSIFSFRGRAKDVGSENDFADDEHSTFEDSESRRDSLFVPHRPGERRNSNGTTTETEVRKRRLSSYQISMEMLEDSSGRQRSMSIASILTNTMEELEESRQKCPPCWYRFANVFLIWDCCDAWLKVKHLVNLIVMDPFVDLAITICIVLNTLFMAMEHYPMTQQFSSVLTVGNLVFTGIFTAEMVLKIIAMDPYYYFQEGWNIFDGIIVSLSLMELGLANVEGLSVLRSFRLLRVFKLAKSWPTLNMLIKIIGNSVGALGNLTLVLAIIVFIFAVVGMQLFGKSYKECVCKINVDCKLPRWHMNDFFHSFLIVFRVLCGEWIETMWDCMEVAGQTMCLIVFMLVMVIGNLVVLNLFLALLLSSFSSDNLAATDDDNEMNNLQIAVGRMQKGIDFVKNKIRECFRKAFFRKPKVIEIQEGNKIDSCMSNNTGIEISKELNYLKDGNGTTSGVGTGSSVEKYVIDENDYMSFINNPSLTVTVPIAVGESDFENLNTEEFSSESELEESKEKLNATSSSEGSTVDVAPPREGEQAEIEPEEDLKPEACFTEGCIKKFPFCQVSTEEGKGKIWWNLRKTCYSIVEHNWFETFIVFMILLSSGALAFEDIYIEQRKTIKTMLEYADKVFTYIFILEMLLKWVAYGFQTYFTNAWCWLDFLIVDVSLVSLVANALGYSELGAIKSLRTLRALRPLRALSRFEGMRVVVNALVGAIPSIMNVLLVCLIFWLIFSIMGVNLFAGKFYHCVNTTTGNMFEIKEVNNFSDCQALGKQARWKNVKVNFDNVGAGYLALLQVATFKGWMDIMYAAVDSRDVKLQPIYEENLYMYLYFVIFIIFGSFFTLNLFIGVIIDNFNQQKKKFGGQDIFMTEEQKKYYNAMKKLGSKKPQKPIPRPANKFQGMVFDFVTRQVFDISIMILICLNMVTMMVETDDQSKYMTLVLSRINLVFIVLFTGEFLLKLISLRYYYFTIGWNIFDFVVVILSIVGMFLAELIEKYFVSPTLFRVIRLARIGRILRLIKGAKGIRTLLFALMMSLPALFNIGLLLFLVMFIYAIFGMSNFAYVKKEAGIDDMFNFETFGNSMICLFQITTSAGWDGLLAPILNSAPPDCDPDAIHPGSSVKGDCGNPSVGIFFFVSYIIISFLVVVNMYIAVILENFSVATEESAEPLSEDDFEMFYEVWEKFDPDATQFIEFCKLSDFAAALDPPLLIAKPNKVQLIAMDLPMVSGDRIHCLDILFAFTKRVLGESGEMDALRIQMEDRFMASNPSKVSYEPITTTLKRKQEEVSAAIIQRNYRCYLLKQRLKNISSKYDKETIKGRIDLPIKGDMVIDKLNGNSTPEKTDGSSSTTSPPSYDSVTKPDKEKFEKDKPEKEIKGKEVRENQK
Chain of UniProt P04775 (P04775 whole entry): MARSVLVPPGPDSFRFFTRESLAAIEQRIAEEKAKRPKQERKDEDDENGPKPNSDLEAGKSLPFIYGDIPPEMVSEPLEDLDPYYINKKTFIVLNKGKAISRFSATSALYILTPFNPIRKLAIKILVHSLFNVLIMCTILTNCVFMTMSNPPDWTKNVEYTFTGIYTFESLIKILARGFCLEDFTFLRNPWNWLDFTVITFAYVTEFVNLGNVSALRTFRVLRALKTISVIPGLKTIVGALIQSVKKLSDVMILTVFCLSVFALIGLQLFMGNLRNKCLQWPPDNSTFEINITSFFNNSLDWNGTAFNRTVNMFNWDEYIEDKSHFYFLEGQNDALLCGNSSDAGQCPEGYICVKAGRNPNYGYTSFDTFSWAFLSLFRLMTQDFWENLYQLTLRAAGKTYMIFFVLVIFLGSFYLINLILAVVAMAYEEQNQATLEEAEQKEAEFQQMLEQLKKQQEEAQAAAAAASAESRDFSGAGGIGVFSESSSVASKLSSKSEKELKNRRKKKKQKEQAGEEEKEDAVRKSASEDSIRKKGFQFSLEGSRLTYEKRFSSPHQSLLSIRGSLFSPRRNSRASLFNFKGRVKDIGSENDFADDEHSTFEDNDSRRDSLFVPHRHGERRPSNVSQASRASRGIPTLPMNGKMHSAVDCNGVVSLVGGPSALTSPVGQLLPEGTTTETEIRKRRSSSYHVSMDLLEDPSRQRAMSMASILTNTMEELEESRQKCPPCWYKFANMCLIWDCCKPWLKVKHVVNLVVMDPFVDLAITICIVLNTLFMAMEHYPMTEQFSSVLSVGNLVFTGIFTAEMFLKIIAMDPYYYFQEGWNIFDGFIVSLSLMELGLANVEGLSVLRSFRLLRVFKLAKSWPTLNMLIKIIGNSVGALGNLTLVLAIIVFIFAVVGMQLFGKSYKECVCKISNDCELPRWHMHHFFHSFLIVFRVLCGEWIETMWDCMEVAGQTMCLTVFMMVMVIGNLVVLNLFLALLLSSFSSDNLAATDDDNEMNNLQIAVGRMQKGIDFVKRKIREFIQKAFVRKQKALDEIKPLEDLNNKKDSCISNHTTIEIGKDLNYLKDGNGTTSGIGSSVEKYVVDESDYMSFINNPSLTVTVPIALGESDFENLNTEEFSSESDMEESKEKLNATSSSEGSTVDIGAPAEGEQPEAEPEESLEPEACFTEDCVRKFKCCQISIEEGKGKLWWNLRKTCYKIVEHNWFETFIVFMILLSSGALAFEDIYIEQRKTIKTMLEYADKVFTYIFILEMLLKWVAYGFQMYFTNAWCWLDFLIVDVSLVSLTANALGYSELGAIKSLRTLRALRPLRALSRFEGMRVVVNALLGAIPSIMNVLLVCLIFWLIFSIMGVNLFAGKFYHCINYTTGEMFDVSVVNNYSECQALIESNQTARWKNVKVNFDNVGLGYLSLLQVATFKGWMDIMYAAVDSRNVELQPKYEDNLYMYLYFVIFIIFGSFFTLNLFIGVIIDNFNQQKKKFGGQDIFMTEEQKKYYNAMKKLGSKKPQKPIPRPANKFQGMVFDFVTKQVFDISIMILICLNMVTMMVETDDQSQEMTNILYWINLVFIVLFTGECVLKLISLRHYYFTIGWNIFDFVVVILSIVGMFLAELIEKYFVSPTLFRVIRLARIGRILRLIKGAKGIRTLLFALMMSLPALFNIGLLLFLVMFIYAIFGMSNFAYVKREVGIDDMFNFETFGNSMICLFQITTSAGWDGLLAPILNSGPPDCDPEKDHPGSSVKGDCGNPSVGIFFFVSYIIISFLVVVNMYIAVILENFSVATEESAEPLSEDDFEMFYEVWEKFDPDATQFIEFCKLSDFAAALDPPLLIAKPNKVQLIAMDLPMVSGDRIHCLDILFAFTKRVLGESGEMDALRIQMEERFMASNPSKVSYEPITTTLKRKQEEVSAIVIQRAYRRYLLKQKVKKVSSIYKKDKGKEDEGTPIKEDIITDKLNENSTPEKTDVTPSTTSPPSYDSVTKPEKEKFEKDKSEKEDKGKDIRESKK

Substance | IC50 of inhibition of the peak current, whole-cell patch clamp, dose–response curve (NaV1.2) | IC50 of inhibition of the peak current, whole-cell patch clamp, dose–response curve (NaV1.3) | IC50 of inhibition of the peak current, whole-cell patch clamp, dose–response curve (NaV1.4) | IC50 of inhibition of the peak current, whole-cell patch clamp, dose–response curve (NaV1.5) | IC50 of inhibition of the peak current, whole-cell patch clamp, dose–response curve (NaV1.6) | IC50 of inhibition of the peak current, whole-cell patch clamp, dose–response curve (NaV1.7) | IC50 of inhibition of the peak current, whole-cell patch clamp, dose–response curve (NaV1.8/1.7L5 channel) | IC50 of inhibition of the current, whole-cell patch clamp, dose–response curve [1] | IC50 of inhibition of the current, whole-cell patch clamp, dose–response curve [2] | IC50 of inhibition of the current, whole-cell patch clamp, dose–response curve [3] | IC50 of inhibition of the current, whole-cell patch clamp, dose–response curve [4] | IC50 of inhibition of the current, whole-cell patch clamp, dose–response curve [5] | IC50 of inhibition of the current, whole-cell patch clamp, dose–response curve [6] | IC50 of inhibition of the current, whole-cell patch clamp, dose–response curve [7]
JZTx-14 (from UniProt B1P1C0 30-62) (peptide) | 0.194 µM | 0.426 µM | 0.29 µM | 0.478 µM | 0.159 µM | 0.189 µM | 0.824 µM | 0.32 µM | 0.833 µM | 0.81 µM | 1.37 µM | 3.47 µM | 0.653 µM | –
JZTx-27 (peptide) | – | – | – | – | – | – | – | – | – | – | – | 0.117 µM | – | 0.0467 µM
